Experimental data as given in patent US20240052042A1 (Novartis, published 2024).

T1: human NPR1 on CHO-K1 cells (human, UniProt P16066 33-1061)
T1 sequence: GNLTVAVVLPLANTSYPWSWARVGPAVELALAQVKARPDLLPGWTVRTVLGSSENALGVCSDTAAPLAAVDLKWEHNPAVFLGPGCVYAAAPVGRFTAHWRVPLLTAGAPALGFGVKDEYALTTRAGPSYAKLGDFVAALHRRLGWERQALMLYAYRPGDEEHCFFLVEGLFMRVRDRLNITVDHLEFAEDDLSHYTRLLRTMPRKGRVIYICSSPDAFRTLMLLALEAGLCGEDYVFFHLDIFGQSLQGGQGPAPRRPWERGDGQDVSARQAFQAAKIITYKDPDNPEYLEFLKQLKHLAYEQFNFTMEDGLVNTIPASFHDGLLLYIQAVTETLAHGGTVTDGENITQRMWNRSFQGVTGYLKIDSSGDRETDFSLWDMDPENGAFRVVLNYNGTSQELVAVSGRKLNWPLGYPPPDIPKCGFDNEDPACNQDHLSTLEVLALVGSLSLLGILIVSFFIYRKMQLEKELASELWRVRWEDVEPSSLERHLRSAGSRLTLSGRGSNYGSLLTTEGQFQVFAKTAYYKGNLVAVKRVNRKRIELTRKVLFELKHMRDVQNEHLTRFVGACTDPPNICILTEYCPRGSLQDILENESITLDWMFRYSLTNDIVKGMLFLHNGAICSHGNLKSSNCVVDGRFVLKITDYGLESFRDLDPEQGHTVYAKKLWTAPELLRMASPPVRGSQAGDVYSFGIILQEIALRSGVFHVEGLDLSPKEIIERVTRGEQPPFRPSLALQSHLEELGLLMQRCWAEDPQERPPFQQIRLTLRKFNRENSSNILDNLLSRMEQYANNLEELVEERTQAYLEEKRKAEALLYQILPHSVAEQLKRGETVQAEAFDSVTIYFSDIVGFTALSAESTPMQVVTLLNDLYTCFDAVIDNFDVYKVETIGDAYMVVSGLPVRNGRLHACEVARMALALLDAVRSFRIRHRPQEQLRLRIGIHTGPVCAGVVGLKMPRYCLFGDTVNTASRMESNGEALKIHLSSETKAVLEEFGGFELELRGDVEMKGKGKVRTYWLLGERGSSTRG

T2: rNPR1-ANP complex (rat, UniProt P01160 124-151 (human entry), limits assumed)
T2 construct: rNPR1 antigen in the presence of ANP; also called rNPR1 + 100 nM ANP
T2 sequence: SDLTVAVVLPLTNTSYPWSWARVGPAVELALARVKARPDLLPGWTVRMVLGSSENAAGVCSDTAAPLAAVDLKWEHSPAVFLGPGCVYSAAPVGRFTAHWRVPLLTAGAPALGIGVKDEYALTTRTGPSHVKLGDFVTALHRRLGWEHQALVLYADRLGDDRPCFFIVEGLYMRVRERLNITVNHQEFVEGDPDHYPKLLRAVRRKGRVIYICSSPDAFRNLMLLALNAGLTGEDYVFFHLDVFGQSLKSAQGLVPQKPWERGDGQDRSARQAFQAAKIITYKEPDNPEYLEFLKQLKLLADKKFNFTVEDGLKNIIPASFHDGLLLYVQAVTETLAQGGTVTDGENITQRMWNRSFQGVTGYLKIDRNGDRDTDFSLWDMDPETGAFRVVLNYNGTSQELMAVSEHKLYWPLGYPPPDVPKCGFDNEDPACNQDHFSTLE
T2 sequence (peptide): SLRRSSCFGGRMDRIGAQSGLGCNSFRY

T3: hNPR1-ANP complex (human, UniProt P01160 124-151, limits assumed)
T3 construct: hNPR1 antigen in the presence of ANP; also called hNPR1 + 100 nM ANP
T3 sequence: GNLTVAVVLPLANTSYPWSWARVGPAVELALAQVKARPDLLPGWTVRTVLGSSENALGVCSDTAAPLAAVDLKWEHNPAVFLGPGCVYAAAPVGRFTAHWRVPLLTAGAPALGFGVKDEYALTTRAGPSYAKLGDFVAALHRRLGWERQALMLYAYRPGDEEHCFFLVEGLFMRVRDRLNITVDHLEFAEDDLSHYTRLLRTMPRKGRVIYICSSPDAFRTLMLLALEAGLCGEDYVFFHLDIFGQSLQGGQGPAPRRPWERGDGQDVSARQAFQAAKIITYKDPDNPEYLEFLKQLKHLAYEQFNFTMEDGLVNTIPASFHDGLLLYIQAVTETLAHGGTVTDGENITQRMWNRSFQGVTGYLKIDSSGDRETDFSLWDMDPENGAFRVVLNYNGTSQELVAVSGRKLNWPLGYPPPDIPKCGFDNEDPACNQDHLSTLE
T3 sequence (peptide): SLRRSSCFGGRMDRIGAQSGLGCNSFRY

T4: human NPR1 on CHO-K1 cells in the presence of ANP (human, UniProt P01160 124-151)
T4 construct: also called hNPR1 CHO K1 + 100 nM ANP
T4 sequence: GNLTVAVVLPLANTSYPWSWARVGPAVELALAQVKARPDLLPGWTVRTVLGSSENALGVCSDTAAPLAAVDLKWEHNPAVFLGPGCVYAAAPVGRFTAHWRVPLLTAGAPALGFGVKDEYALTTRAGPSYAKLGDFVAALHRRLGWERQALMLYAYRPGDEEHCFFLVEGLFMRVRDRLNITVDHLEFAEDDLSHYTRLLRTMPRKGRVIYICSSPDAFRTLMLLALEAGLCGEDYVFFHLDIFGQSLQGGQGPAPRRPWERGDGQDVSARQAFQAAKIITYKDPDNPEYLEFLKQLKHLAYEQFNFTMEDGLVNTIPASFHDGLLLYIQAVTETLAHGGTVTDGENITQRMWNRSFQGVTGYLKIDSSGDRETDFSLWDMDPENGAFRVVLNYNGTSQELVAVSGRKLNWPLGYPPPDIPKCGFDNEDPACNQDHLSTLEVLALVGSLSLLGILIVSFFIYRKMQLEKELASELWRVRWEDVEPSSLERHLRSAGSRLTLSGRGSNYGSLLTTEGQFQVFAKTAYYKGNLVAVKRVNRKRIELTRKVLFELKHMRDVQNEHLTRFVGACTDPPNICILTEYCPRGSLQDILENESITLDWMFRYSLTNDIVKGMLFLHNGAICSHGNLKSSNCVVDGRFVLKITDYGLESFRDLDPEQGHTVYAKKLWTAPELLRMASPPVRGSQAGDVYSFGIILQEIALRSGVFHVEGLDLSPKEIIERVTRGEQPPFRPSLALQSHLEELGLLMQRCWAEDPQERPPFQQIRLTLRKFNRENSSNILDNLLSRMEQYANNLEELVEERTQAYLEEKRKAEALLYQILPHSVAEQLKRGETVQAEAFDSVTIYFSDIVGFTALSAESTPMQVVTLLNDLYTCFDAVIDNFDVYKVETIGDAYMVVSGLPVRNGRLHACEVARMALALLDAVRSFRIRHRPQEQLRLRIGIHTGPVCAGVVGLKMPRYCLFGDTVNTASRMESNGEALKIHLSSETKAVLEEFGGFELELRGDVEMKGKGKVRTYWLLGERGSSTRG
T4 sequence (peptide): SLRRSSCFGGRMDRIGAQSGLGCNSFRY


Columns and labels:
[1] = molecular target: T1, human NPR1 on CHO-K1 cells; test: cell-based or functional assay
rNPR1-ANP complex [2] = molecular target: T2, rNPR1-ANP complex; test: Octet, FabCys; comment: Heterogenous binding
hNPR1-ANP complex [3] = molecular target: T3, hNPR1-ANP complex; test: Octet, FabCys; comment: Heterogenous binding
rNPR1-ANP complex [4] = molecular target: T2, rNPR1-ANP complex; test: FabCys, parental value by Octet (table comment), as in Table 14
hNPR1-ANP complex [5] = molecular target: T3, hNPR1-ANP complex; test: as above
rNPR1-ANP complex [6] = molecular target: T2, rNPR1-ANP complex; test: FabCys affinity (Octet per Table 18 comment)
hNPR1-ANP complex [7] = molecular target: T3, hNPR1-ANP complex; test: FabCys affinity (Octet per Table 18 comment)
[8] = molecular target: T4, human NPR1 on CHO-K1 cells in the …; test: flow cytometry (FL2-H) on hNPR1 CHO-K1 cells with saturating ANP, IgG titrated; control parental CHO-K1 [panel WW01]
[9] = molecular target: T1, human NPR1 on CHO-K1 cells; test: flow cytometry, hNPR1 CHO-K1 cells, IgG
[10] = molecular target: T4, human NPR1 on CHO-K1 cells in the …; test: flow cytometry, hNPR1 CHO-K1 cells, IgG
hNPR1-ANP complex [11] = molecular target: T3, hNPR1-ANP complex; test: ELISA, IgG

Row | cGMP conc [nM] at 1 µM FabCys, +0.075 nM ANP [1] | cGMP conc [nM] at 1 µM FabCys, without ANP [1] | Kd (rNPR1-ANP complex [2]) | Kd (hNPR1-ANP complex [3]) | Kd (rNPR1-ANP complex [4]) | Kd (hNPR1-ANP complex [5]) | Kd (rNPR1-ANP complex [6]) | Kd (hNPR1-ANP complex [7]) | EC50 (read off the curve) [8] | flow cytometry S/BG at 2 µM IgG [9] | flow cytometry S/BG at 2 µM IgG [10] | EC50 (hNPR1-ANP complex [11]) | Binder
1 | 46 nM | 15 nM | 8.8 nM | 26 nM | 14 nM | 16 nM | 14 nM | 16 nM | – | – | – | – | YY01 (FabCys format) (Fab, V domains shown, Monovalent FabCys) VH: EVQLVESGGGLVQPGGSLRLSCAASGFTFSSYWISWVRQAPGKGLEWVANIKQSGSETYYVESVKGRFTISRDNAKNSLYLQMNSLRAEDTAVYYCARSLRRRSTEHAGFDVWGQGTLVTVSS VL: DIQMTQSPSSLSASVGDRVTITCRASQGISNYLAWYQQKPGKVPKLLIYAASTLQSGVPSRFSGSGSGTDFTLTISSLQPEDVATYYCQQADKFPYTFGQGTKVEIK
2 | – | – | – | – | – | – | – | – | ~3 nM | 19.9 S/BG | 222 S/BG | 1 nM | WW01 (IgG format) (antibody, V domains shown, also called WW01_LALA) VH: QVQLLESGGGLVQPGGSLRLSCAASGFTFNTHYIHWVRQAPGKGLEWVSSISGSGSNTYYADSVKGRFTISRDNSKNTLYLQMNSLRAEDTAVYYCARERGYVYYHMFDPWGQGTLVTVSS VL: DIVLTQSPATLSLSPGERATLSCRASQSITRNYLAWYQQKPGQAPRLLIYGASSRATGIPARFSGSGSGTDFTLTISSLEPEDFAVYYCQQHSMYPRTFGQGTKVEIKR
